Data as given in US20100129806A1.

Legend:
[1] = molecular target: myc-IP6K2 E138-9A mutant (glutamates 138 and 139 mutated) (human) (UniProt Q9UHH9); assay: cell-based or functional assay
[2] = molecular target: myc-IP6K2 R133A mutant (human) (UniProt Q9UHH9); assay: cell-based or functional assay
Sequence of myc-IP6K2 R133A mutant (human) (Q9UHH9 whole entry R133A): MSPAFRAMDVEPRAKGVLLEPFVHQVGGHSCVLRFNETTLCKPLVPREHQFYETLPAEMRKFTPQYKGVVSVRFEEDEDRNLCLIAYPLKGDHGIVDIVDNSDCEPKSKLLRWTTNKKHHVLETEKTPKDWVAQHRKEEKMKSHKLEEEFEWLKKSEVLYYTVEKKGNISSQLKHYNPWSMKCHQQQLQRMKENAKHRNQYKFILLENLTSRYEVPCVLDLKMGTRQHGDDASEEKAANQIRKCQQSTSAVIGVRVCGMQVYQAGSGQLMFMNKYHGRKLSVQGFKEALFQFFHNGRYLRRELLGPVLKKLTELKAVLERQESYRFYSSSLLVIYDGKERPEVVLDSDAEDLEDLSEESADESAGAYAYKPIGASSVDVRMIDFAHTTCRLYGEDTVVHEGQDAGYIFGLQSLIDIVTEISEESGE

Sequence of myc-IP6K2 E138-9A mutant (glutamates 138 and 139 mutated) (human) (Q9UHH9 other isoform, or with tags, fused parts or gaps mutant): as the sequence (Q9UHH9 whole entry R133A) above, with A133R, E138A, E139A counted along it

IP6K2 enzyme activity in vivo (fold of IP6K2wt) [1]: 2 | IP6K2 enzyme activity in vivo (fold of IP6K2wt) [2]: 2
Substance: endogenous HSP90 of human cells (HEK 293, HeLa), also used purified from HeLa cells (from UniProt P07900 2-732)
cell death of transfected HeLa cells (fold of wild type IP6K2) [1]: 5 | cell death of transfected HeLa cells (fold of wild type IP6K2) [2]: 5
